Three molecules from patent US20180344736A1 (ROCHESTER, published 2018) can be followed below.

Assay [1] concerns the target T1, Parkin (endogenous) (human, UniProt O60260 1-465).
T1 construct: Endogenous protein immunoprecipitated from cell lysates; also called Endogenous Parkin
The experiment in a line: not told (data not shown).

For assay [2], the target named is T2, Cdh1 (human, UniProt Q9UM11 1-496, limits assumed).
T2 construct: Protein in cell lysate, co-immunoprecipitation
Description: IP-immunoblot of transfected Parkin domain constructs, mitotic cells (FIG. 10A).
Description: Cells were transfected with the indicated plasmids, and mitotic cells were collected for immunoprecipitation (IP)-immunoblot analysis (right).

Assay [3] has as its target T3, Cdc20 (human, UniProt Q12834 1-499).
T3 construct: Protein in cell lysate, co-immunoprecipitation
The experiment in a line: IP-immunoblot of transfected cells with or without nocodazole (FIG. 9K). (Immunoblotting shows a protein as a band on a membrane.)
Description: (H) Cells were transfected with the indicated plasmids, and then treated with nocodazole. Cell lysates were then blotted with the indicated antibodies. […] (J and K) Cells were treated with chemical (J) or transfected with indicated constructs (K).

T3 sequence (Q12834 whole entry): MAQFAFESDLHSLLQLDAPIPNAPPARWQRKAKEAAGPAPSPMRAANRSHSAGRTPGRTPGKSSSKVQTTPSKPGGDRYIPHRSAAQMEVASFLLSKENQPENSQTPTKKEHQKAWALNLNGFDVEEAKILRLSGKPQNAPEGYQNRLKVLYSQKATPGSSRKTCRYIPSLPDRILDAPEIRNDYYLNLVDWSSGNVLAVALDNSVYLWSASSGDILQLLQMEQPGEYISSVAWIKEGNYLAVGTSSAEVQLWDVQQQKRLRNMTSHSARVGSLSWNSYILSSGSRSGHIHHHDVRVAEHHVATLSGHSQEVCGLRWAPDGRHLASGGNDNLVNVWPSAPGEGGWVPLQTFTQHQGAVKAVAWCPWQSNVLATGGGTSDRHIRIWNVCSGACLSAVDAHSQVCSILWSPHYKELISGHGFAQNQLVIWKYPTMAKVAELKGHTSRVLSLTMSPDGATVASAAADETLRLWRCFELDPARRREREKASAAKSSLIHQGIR
T2 sequence (Q9UM11 whole entry): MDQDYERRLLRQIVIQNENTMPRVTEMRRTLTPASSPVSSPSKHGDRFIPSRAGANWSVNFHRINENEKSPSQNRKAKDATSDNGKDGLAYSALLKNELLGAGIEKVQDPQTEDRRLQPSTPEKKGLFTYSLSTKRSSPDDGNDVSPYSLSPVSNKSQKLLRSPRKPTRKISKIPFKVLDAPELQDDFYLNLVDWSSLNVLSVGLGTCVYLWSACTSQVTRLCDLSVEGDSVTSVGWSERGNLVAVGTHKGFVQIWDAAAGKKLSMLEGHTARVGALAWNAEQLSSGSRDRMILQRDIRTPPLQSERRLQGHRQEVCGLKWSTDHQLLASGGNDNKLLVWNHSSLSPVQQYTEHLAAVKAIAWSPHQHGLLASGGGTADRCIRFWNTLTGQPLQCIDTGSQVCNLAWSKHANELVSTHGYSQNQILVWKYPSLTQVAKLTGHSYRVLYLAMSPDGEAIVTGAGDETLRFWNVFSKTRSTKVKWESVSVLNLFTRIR

B1: UbcH10 (enzyme, UniProt O00762 2-179, looked up)
chain: ASQNRDPAATSVAAARKGAEPSGGAARGPVGKRLQQELMTLMMSGDKGISAFPESDNLFKWVGTIHGAAGTVYEDLRYKLSLEFPSGYPYNAPTVKFLTPCYHPNVDTQGNICLDILKEKWSALYDVRTILLSIQSLLGEPNIDSPLNTHAAELWKNPTAFKKYLQETYSKQVTSQEP
notes: also called the E2 for APC/C in mitosis
Regarding B1, the binding result in assay [1] was “no binding”.

B2: Parkin RING1 domain (other, UniProt O60260 238-293, looked up, not shown: small tags and cut ends)
chain: CITCTDVRSPVLVFQCNSRHVICLDCFHLYCVTRLNDRQFVHDPQLGYSLPCVAGC
notes: domain: RING1
B2: the binding result in assay [2] is recorded as “no binding”.

B3: Parkin S378A (enzyme, UniProt O60260 1-465, looked up, not shown: large carriers)
chain: MIVFVRFNSSHGFPVEVDSDTSIFQLKEVVAKRQGVPADQLRVIFAGKELRNDWTVQNCDLDQQSIVHIVQRPWRKGQEMNATGGDDPRNAAGGCEREPQSLTRVDLSSSVLPGDSVGLAVILHTDSRKDSPPAGSPAGRSIYNSFYVYCKGPCQRVQPGKLRVQCSTCRQATLTLTQGPSCWDDVLIPNRMSGECQSPHCPGTSAEFFFKCGAHPTSDKETSVALHLIATNSRNITCITCTDVRSPVLVFQCNSRHVICLDCFHLYCVTRLNDRQFVHDPQLGYSLPCVAGCPNSLIKELHHFRILGEEQYNRYQQYGAEECVLQMGGVLCPRPGCGAGLLPEPDQRKVTCEGGNGLGCGFAFCRECKEAYHEGECAAVFEASGTTTQAYRVDERAAEQARWEAASKETIKKTTKPCPRCHVPVEKNGGCMHMKCPQPQCRLEWCWNCGCEWNRVCMGDHWFDV
notes: Transfected construct, IP-immunoblot with or without nocodazole
On to B3, for which the binding result in assay [3] is listed as “no binding”.
